Target: hTEM8-AP (human) (UniProt Q9H6X2)
Test: Biocore (SPR) affinity measurement of anti-TEM8 Fab

Chain of hTEM8-AP (human) (Q9H6X2 33-321): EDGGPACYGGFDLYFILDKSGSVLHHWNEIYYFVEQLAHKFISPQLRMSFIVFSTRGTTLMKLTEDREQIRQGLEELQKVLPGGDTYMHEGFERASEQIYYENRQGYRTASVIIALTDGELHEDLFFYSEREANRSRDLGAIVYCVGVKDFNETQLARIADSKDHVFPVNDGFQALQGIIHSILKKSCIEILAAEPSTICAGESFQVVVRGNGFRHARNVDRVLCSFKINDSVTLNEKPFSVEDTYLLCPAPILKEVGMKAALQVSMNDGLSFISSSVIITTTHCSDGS

Molecule “M830 anti-TEM8 fragment antigen-binding (Fab)” has a Kd of 1570 pM, a koff of 0.000953 s⁻¹ and a kon of 607000 M⁻¹ s⁻¹.

B1: M825 anti-TEM8 fragment antigen-binding (Fab) (Fab, V domains shown)
VH: QVQLVQSGAEVKKPGTSVKVSCKVPGYTFSSYAISWVRQAPGQGLEWMGGIIPIFGTTNYAQKFQGRVTITGEESTSTVYMELSSLRSEDTAVYYCARDTDYMFDYWGQGTLVTVSS
VL: SSELTQDPVVSVALGETVSITCQGDNLRDFYASWYQQKPGQAPLLVMYGKNRRPSGIPDRFSGSTSGNTLSLTITGAQAEDEADYYCSSRDNSKHVVFGGGTKVTVL
B1 was tested, and the Kd was 59.1 pM, the koff was 0.00018 s⁻¹ and the kon was 3.05e+06 M⁻¹ s⁻¹.

Reference: patent US20170112928A1
